Reference: patent publication US7427595 (CORNELL RESEARCH FOUNDATION, dated 2008)
Each block holds one binder with its values, some of them ahead of it.

What was measured:
[1] = target: T1, recombinant human SLPI (Amgen)
T1 chain: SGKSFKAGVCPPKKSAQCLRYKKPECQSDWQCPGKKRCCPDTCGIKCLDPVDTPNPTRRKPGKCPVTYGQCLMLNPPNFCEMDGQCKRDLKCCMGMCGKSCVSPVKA

[2] = target: T2, recombinant mouse SLPI (Amgen)
T2 chain: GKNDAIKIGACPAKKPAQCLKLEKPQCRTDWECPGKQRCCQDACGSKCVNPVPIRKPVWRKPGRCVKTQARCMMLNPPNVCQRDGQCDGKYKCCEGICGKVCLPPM

[3] = target: T3, partial mouse PEPI (1180 bp of the ORF) in fusion with the activation domain of GAL4 (GAL4-AD), 21 two-hybrid … (yeast; mouse, UniProt P28798 197-589, limits assumed); assay: yeast two-hybrid, growth without histidine and LacZ expression
T3 construct: EPIs G and F absent; also called proepithelin
T3 sequence: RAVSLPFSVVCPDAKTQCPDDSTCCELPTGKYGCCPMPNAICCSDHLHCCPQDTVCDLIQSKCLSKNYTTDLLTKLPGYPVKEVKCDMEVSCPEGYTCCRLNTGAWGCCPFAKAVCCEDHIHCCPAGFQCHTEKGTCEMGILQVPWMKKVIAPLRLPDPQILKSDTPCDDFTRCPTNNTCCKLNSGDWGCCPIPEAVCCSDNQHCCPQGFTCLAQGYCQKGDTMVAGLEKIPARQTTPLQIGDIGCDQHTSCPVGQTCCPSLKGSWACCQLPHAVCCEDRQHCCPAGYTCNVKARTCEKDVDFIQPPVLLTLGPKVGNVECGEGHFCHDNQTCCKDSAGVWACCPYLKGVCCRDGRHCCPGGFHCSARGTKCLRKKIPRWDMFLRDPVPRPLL

[4] = target: T4, PEPI in human bronchoalveolar lavage (BAL) fluid (human, UniProt P28799 18-593); assay: immunoprecipitation of PEPI from BAL fluids of two individuals, anti-SLPI blot
T4 construct: Endogenous protein, immunoprecipitated with antiserum against human PEPI; also called proepithelin
T4 sequence (looked up): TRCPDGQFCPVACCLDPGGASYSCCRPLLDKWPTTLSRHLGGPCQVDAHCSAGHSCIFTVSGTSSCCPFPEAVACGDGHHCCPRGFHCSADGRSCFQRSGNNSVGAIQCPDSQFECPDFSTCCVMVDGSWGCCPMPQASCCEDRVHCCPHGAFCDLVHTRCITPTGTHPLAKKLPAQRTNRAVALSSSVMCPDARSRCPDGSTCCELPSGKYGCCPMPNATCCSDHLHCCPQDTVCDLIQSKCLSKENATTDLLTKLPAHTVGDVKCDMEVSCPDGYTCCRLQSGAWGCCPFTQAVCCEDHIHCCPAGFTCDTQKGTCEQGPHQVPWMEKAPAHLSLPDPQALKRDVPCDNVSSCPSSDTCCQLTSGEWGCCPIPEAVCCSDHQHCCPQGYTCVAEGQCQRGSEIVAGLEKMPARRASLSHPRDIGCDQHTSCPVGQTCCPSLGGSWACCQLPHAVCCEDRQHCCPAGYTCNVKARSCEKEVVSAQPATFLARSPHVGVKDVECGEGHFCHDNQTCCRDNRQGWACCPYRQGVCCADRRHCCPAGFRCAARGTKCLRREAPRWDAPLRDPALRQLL
Procedure: BAL fluids were collected from healthy adult subjects according to an institutional review board-approved protocol following informed consent. The fluids (45 ml each) were concentrated to 0.5 ml in a Centriprep (Millipore) with 10 kDa cut-off before immunoprecipitation with antiserum against human PEPI and western blotting with antisera against human SLPI or human PEPI.
To test if a SLPI-PEPI complex exists in vivo normal human bronchoalveolar lavage (BAL) fluid samples were examined because both SLPI and PEPI are strongly expressed in airway epithelium (Abe et al., 1991; Daniel et al., 2000). PEPI was immunoprecipitated from the BAL fluids collected from two individuals, and SLPI was detected in the PEPI immunoprecipitates (FIG. 2D). Thus, the SLPI-PEPI complex is physiologic.

[5] = target: T5, recombinant human SLPI (Amgen) (human, UniProt P03973 26-132); assay: reciprocal co-immunoprecipitation of pure recombinant proteins (anti-FLAG M2 and anti-SLPI), western blot
T5 construct: Obtained from Amgen; also called SLPIwt; wild type human SLPI
Description: PEPI and SLPI were transiently expressed in HEK293 or COS-1 cells. FLAG-tagged PEPI (aa 18-593) was expressed from pCMVI-FLAG and SLPI constructs from pcDNA3.1 (Invitrogen). SLPI constructs included mouse full length (aa 1-131), mouse N-terminal domain (aa 1-80), mouse C-terminal domain (aa 1-25/81-131), and human full-length (aa 1-131). Three days following co-transfection via SuperFect reagent (Qiagen), conditioned media were immunoprecipitated with FLAG M2 antibody (Sigma), separated by reducing SDS-PAGE and western blotted with anti-SLPI antibody (Jin et al., 1997). For in vitro immunoprecipitation assays, recombinant human PEPI or EPI (FLAG-tagged) and SLPI (5 pmol each) were incubated in 10 mM Tris-HCl (pH 7.5), 150 mM NaCl at 37° C. for 30 min before immunoprecipitation with anti-FLAG M2 antibody and western blotting with anti-SLPI antibody or the reverse.
Next, experiments were performed to ascertain which part of PEPI binds to SLPI (for the order of EPIs in PEPI, see FIG. 1A). EPIs G and F were absent in the partial PEPI sequences isolated as SLPI-binding proteins in yeast (FIG. 1A) and thus were dispensable for the interaction. […] When FLAG-tagged recombinant human EPI A or EPI B was incubated with recombinant human SLPI at an equimolar ratio (FIG. 2E) or at a molar ratio of A (or B):SLPI::1:5 (not shown), SLPI was not detected in EPI immunoprecipitates or vice versa. […]

B1: human neutrophil elastase (Sigma) (protein)
chain: IVGGRRARPHAWPFMVSLQLRGGHFCGATLIAPNFVMSAAHCVANVNVRAVRVVLGAHNLSRREPTRQVFAVQRIFENGYDPVNLLNDIVILQLNGSATINANVQVAQLPAQGRRLGNGVQCLAMGWGLLGRNRGIASVLQELNVTVVTSLCRRSNVCTLVRGRQAGVCFGDSGSPLVCNGLIHGIASFVRGGCASGLYPDAFAPVAQFVNWIDSIIQ
cleavage of PEPI by elastase (anti-FLAG western blot) [1]: human and mouse SLPI did block the cleavage of human PEPI by elastase, human SLPI being the more potent
cleavage of PEPI by elastase (anti-FLAG western blot) [2]: human and mouse SLPI did block the cleavage of human PEPI by elastase, human SLPI being the more potent

B2: lamin C (other, UniProt P02545-2 67-230, looked up)
chain: EEVVSREVSGIKAAYEAELGDARKTLDSVAKERARLQLELSKVREEFKELKARNTKKEGDLIAAQARLKDLEALLNSKEAALSTALSEKRTLEGELHDLRGQVAKLEAALGEAKKQLQDEMLRRVDAENRLQTMKEELDFQKNIYSEELRETKRRHETRLVEID
notes: Non-specific control in the yeast two-hybrid test
binding result [3]: no binding

B3: SLPI in human bronchoalveolar lavage (BAL) fluid (other, UniProt P03973 26-132, looked up)
chain: T1 chain
notes: Endogenous protein
binding result [4]: binds

Results, then the binder that gave them:

binding result [5]: no binding
B4: recombinant human EPI A (aa 281-337) with an N-terminal FLAG-6xHis tag, from insect cells (other)
chain: DVKCDMEVSCPDGYTCCRLQSGAWGCCPFTQAVCCEDHIHCCPAGFTCDTQKGTCEQ
notes: the construct is stated as aa 281-337; also called epithelin A; not shown: N-terminal FLAG-6xHis tag

binding result [5]: no binding
B5: recombinant human EPI B (aa 206-261) with an N-terminal FLAG-6xHis tag, from insect cells (other)
chain: VMCPDARSRCPDGSTCCELPSGKYGCCPMPNATCCSDHLHCCPQDTVCDLIQSKCL
notes: also called epithelin B; not shown: N-terminal FLAG-6xHis tag
